This passage reports IC50 results from paper PMC3830444.

In the experiment the target is FPR-chloromethyl ketone-thrombin (active site-inhibited α-thrombin) (human), P00734. Nature of the experiment: ELISA.

In turn, GDFEPIPEDAYDE (modifications not checked) [H6HV3_(54-66)G6 synthetic peptide] registered an IC50 of 5 µM.
